Source: patent publication US20070134813A1

T1: C-reactive protein (human) (UniProt P02741)
T1 sequence (looked up): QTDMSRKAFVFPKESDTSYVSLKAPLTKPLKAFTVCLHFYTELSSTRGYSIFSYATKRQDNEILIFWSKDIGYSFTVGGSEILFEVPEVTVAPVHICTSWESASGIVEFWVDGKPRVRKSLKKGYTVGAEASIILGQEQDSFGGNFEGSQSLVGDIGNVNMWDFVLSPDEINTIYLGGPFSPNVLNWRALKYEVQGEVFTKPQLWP


Experiments:
[1] = molecular target: T1, C-reactive protein (human); experiment: SPR, Fn 1 mg/mL in the presence of 50 uM 9-mer injected over antibody-captured CRP
[2] = molecular target: T1, C-reactive protein (human); experiment: SPR, Fn 1 mg/mL in the presence of 50 uM 10-mer injected over antibody-captured CRP
[3] = molecular target: T1, C-reactive protein (human); experiment: SPR, Fn 1 mg/mL in the presence of 50 uM 19-mer injected over antibody-captured CRP
[4] = molecular target: T1, C-reactive protein (human); experiment: SPR (Biacore X), Fn 1 mg/mL without inhibitor injected over CRP captured on immobilized anti-CRP antibody, 25 C
[5] = molecular target: T1, C-reactive protein (human); experiment: SPR, inhibition of Fn (1 mg/mL) binding to antibody-captured CRP at 50 uM peptide

Row | Molecule | SPR Response (RU) [1] [RU] | SPR Response (RU) [2] [RU] | SPR Response (RU) [3] [RU] | SPR Response (RU) [4] [RU] | % Inhibition [5] [%]
1 | fibronectin (from UniProt P02751 32-2477) | 119 | 76 | 76 | 118 | –
2 | PRCGNPDVA [9-mer (SEQ ID NO.: 16)] | – | – | – | – | 0
3 | NYNFFPRKPK [10-mer (SEQ ID NO.: 12)] | – | – | – | – | 35.6
4 | PRCGNPDVANYNFFPRKPK [19-mer (SEQ ID NO.: 11)] | – | – | – | – | 35.6
